Numbered stars: 1 amine (or outer) side, 2 acyl side, 3 side chain; on linkers, the order of the positions; unused ones are H or OH. Bridge positions count the residues as written; N and C are the ends. Side chains are listed from the residue outwards. Ends that are not written are not given here. * marks the point of attachment. C20 diacid = O=C(O)CCCCCCCCCCCCCCCCCCC(=O)*; γGlu = O=C(O)[C@H](CCC(=O)[*:2])N[*:1]
T1: human amylin receptor (amylin 3(a) receptor: human calcitonin receptor plus RAMP-3) (human, UniProt P30988 25-474; O60896 24-148)
T1 sequence (looked up) 1: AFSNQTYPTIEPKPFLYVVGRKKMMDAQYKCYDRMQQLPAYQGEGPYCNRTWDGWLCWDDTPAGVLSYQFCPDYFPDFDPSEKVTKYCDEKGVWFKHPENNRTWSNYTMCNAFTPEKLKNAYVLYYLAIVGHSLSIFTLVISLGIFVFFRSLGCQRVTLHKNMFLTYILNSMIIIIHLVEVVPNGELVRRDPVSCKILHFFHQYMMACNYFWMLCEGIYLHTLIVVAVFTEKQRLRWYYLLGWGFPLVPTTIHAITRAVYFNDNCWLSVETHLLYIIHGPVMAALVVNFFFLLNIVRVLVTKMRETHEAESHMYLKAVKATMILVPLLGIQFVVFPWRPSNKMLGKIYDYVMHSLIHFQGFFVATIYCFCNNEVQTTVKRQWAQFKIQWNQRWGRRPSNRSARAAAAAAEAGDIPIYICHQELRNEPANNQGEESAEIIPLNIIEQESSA
T1 sequence (looked up) 2: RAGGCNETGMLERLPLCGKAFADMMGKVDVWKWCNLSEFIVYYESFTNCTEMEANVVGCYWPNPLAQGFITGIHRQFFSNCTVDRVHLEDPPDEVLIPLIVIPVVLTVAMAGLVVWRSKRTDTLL

T2: human calcitonin receptor (human, UniProt P30988 25-474)
T2 sequence (looked up): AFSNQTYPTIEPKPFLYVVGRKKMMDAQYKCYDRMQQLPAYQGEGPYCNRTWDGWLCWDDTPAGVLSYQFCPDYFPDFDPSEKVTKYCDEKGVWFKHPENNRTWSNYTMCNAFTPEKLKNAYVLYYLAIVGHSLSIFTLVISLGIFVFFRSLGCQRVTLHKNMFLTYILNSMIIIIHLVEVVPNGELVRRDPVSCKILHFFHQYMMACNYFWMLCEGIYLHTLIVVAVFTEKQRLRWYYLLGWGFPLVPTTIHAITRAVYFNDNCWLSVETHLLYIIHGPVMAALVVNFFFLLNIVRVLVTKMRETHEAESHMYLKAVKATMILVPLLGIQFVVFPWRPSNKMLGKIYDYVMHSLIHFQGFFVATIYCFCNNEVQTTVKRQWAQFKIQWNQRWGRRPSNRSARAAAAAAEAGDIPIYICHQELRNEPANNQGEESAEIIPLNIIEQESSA


What was measured:
[1] = biological target: T1, human amylin receptor (amylin 3(a) …); experiment: cell-based or functional assay
[2] = biological target: T2, human calcitonin receptor; experiment: cell-based or functional assay
[3] = biological target: T1, human amylin receptor (amylin 3(a) …); experiment: SPA competition binding, displacement of 125I-rat amylin, membranes of BHK amylin 3(a)/CRE-luc cells
Summary of the method: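 One-site competition analysis of SPA counts yielded IC₅₀ as a measure of affinity. Membranes were at 35 ng/μL final; incubation was 120 min at 25° C, pH 7.4.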

Binder	hAmylin-R funct. EC50 (pM) [1] [pM]	hCTR funct. EC50 (pM) [2] [pM]	IC50 [3] [nM]	Ratio hCT/hAmylin funct. [1]
K([γGlu-γGlu-C20 diacid])CNTATCATQRLAEFLRHSSNNPGAILSSTNVGPETY-NH2 (disulfide 2-7; N-terminus assumed; SMILES CC[C@H](C)[C@H](NC(=O)[C@H](C)NC(=O)CNC(=O)[C@@H]1CCCN1C(=O)[C@H](CC(N)=O)NC(=O)[C@H](CC(N)=O)NC(=O)[C@H](CO)NC(=O)[C@H](CO)NC(=O)[C@H](Cc1c[nH]cn1)NC(=O)[C@H](CCCNC(=N)N)NC(=O)[C@H](CC(C)C)NC(=O)[C@H](Cc1ccccc1)NC(=O)[C@H](CCC(=O)O)NC(=O)[C@H](C)NC(=O)[C@H](CC(C)C)NC(=O)[C@H](CCCNC(=N)N)NC(=O)[C@H](CCC(N)=O)NC(=O)[C@@H](NC(=O)[C@H](C)NC(=O)[C@@H]1CSSC[C@H](NC(=O)[C@@H](N)CCCCNC(=O)CC[C@H](NC(=O)CC[C@H](NC(=O)CCCCCCCCCCCCCCCCCCC(=O)O)C(=O)O)C(=O)O)C(=O)N[C@@H](CC(N)=O)C(=O)N[C@@H]([C@@H](C)O)C(=O)N[C@@H](C)C(=O)N[C@@H]([C@@H](C)O)C(=O)N1)[C@@H](C)O)C(=O)N[C@@H](CC(C)C)C(=O)N[C@@H](CO)C(=O)N[C@@H](CO)C(=O)N[C@H](C(=O)N[C@@H](CC(N)=O)C(=O)N[C@H](C(=O)NCC(=O)N1CCC[C@H]1C(=O)N[C@@H](CCC(=O)O)C(=O)N[C@H](C(=O)N[C@@H](Cc1ccc(O)cc1)C(N)=O)[C@@H](C)O)C(C)C)[C@@H](C)O)	5170	89600	1.19	
K([γGlu-γGlu-C20 diacid])CNTATCATQRLASFLRHSSPNFGAIPSSTNVGPETY-NH2 (disulfide 2-7; N-terminus assumed; SMILES CC[C@H](C)[C@H](NC(=O)[C@H](C)NC(=O)CNC(=O)[C@H](Cc1ccccc1)NC(=O)[C@H](CC(N)=O)NC(=O)[C@@H]1CCCN1C(=O)[C@H](CO)NC(=O)[C@H](CO)NC(=O)[C@H](Cc1c[nH]cn1)NC(=O)[C@H](CCCNC(=N)N)NC(=O)[C@H](CC(C)C)NC(=O)[C@H](Cc1ccccc1)NC(=O)[C@H](CO)NC(=O)[C@H](C)NC(=O)[C@H](CC(C)C)NC(=O)[C@H](CCCNC(=N)N)NC(=O)[C@H](CCC(N)=O)NC(=O)[C@@H](NC(=O)[C@H](C)NC(=O)[C@@H]1CSSC[C@H](NC(=O)[C@@H](N)CCCCNC(=O)CC[C@H](NC(=O)CC[C@H](NC(=O)CCCCCCCCCCCCCCCCCCC(=O)O)C(=O)O)C(=O)O)C(=O)N[C@@H](CC(N)=O)C(=O)N[C@@H]([C@@H](C)O)C(=O)N[C@@H](C)C(=O)N[C@@H]([C@@H](C)O)C(=O)N1)[C@@H](C)O)C(=O)N1CCC[C@H]1C(=O)N[C@@H](CO)C(=O)N[C@@H](CO)C(=O)N[C@H](C(=O)N[C@@H](CC(N)=O)C(=O)N[C@H](C(=O)NCC(=O)N1CCC[C@H]1C(=O)N[C@@H](CCC(=O)O)C(=O)N[C@H](C(=O)N[C@@H](Cc1ccc(O)cc1)C(N)=O)[C@@H](C)O)C(C)C)[C@@H](C)O, also called compound 120)	109	887	0.076	8.1
K([γGlu-C20 diacid])RCNTATCATQRLANFLRHSSPNFGAIPSSTNVGSHTY-NH2 (disulfide 3-8; N-terminus assumed; SMILES CC[C@H](C)[C@H](NC(=O)[C@H](C)NC(=O)CNC(=O)[C@H](Cc1ccccc1)NC(=O)[C@H](CC(N)=O)NC(=O)[C@@H]1CCCN1C(=O)[C@H](CO)NC(=O)[C@H](CO)NC(=O)[C@H](Cc1c[nH]cn1)NC(=O)[C@H](CCCNC(=N)N)NC(=O)[C@H](CC(C)C)NC(=O)[C@H](Cc1ccccc1)NC(=O)[C@H](CC(N)=O)NC(=O)[C@H](C)NC(=O)[C@H](CC(C)C)NC(=O)[C@H](CCCNC(=N)N)NC(=O)[C@H](CCC(N)=O)NC(=O)[C@@H](NC(=O)[C@H](C)NC(=O)[C@@H]1CSSC[C@H](NC(=O)[C@H](CCCNC(=N)N)NC(=O)[C@@H](N)CCCCNC(=O)CC[C@H](NC(=O)CCCCCCCCCCCCCCCCCCC(=O)O)C(=O)O)C(=O)N[C@@H](CC(N)=O)C(=O)N[C@@H]([C@@H](C)O)C(=O)N[C@@H](C)C(=O)N[C@@H]([C@@H](C)O)C(=O)N1)[C@@H](C)O)C(=O)N1CCC[C@H]1C(=O)N[C@@H](CO)C(=O)N[C@@H](CO)C(=O)N[C@H](C(=O)N[C@@H](CC(N)=O)C(=O)N[C@H](C(=O)NCC(=O)N[C@@H](CO)C(=O)N[C@@H](Cc1c[nH]cn1)C(=O)N[C@H](C(=O)N[C@@H](Cc1ccc(O)cc1)C(N)=O)[C@@H](C)O)C(C)C)[C@@H](C)O, also called compound 44)	198	4750	0.275	24
{C20 diacid-γGlu}-GRCNTATCATQRLANFLRHSSPNFGAIPSSTNVGSNTY-NH2 (disulfide 3-8; SMILES CC[C@H](C)[C@H](NC(=O)[C@H](C)NC(=O)CNC(=O)[C@H](Cc1ccccc1)NC(=O)[C@H](CC(N)=O)NC(=O)[C@@H]1CCCN1C(=O)[C@H](CO)NC(=O)[C@H](CO)NC(=O)[C@H](Cc1c[nH]cn1)NC(=O)[C@H](CCCNC(=N)N)NC(=O)[C@H](CC(C)C)NC(=O)[C@H](Cc1ccccc1)NC(=O)[C@H](CC(N)=O)NC(=O)[C@H](C)NC(=O)[C@H](CC(C)C)NC(=O)[C@H](CCCNC(=N)N)NC(=O)[C@H](CCC(N)=O)NC(=O)[C@@H](NC(=O)[C@H](C)NC(=O)[C@@H]1CSSC[C@H](NC(=O)[C@H](CCCNC(=N)N)NC(=O)CNC(=O)CC[C@H](NC(=O)CCCCCCCCCCCCCCCCCCC(=O)O)C(=O)O)C(=O)N[C@@H](CC(N)=O)C(=O)N[C@@H]([C@@H](C)O)C(=O)N[C@@H](C)C(=O)N[C@@H]([C@@H](C)O)C(=O)N1)[C@@H](C)O)C(=O)N1CCC[C@H]1C(=O)N[C@@H](CO)C(=O)N[C@@H](CO)C(=O)N[C@H](C(=O)N[C@@H](CC(N)=O)C(=O)N[C@H](C(=O)NCC(=O)N[C@@H](CO)C(=O)N[C@@H](CC(N)=O)C(=O)N[C@H](C(=O)N[C@@H](Cc1ccc(O)cc1)C(N)=O)[C@@H](C)O)C(C)C)[C@@H](C)O, also called compound 46) [N^-1-[(4S)-4-carboxy-4-(19-carboxynonadecanoylamino)butanoyl]-Gly[Arg1,Arg17,Pro21,Pro27]-h-amylin]	88	899	0.195	10.2
{C20 diacid-γGlu}-GRCNTATCATQRLANFLRHSSPNFGAIPSSTNVGSHTY-NH2 (disulfide 3-8; SMILES CC[C@H](C)[C@H](NC(=O)[C@H](C)NC(=O)CNC(=O)[C@H](Cc1ccccc1)NC(=O)[C@H](CC(N)=O)NC(=O)[C@@H]1CCCN1C(=O)[C@H](CO)NC(=O)[C@H](CO)NC(=O)[C@H](Cc1c[nH]cn1)NC(=O)[C@H](CCCNC(=N)N)NC(=O)[C@H](CC(C)C)NC(=O)[C@H](Cc1ccccc1)NC(=O)[C@H](CC(N)=O)NC(=O)[C@H](C)NC(=O)[C@H](CC(C)C)NC(=O)[C@H](CCCNC(=N)N)NC(=O)[C@H](CCC(N)=O)NC(=O)[C@@H](NC(=O)[C@H](C)NC(=O)[C@@H]1CSSC[C@H](NC(=O)[C@H](CCCNC(=N)N)NC(=O)CNC(=O)CC[C@H](NC(=O)CCCCCCCCCCCCCCCCCCC(=O)O)C(=O)O)C(=O)N[C@@H](CC(N)=O)C(=O)N[C@@H]([C@@H](C)O)C(=O)N[C@@H](C)C(=O)N[C@@H]([C@@H](C)O)C(=O)N1)[C@@H](C)O)C(=O)N1CCC[C@H]1C(=O)N[C@@H](CO)C(=O)N[C@@H](CO)C(=O)N[C@H](C(=O)N[C@@H](CC(N)=O)C(=O)N[C@H](C(=O)NCC(=O)N[C@@H](CO)C(=O)N[C@@H](Cc1c[nH]cn1)C(=O)N[C@H](C(=O)N[C@@H](Cc1ccc(O)cc1)C(N)=O)[C@@H](C)O)C(C)C)[C@@H](C)O, also called compound 47)	222	1320	0.344	6

From patent US20140087995A1 (published 2014)
